Non-standard residues stand in square brackets, D forms with d. No end group written: not given here. *: point of attachment. Biotin = O=C1N[C@H]2[C@H](CS[C@H]2CCCCC(=O)*)N1
Assays:
[1] = molecular target: high affinity formyl methionine receptor (fMLF receptor) on differentiated HL-60 cells (human) (UniProt P21462); test: cell-based or functional assay
[2] = molecular target: high affinity formyl methionine receptor (fMLF receptor) on differentiated HL-60 cells (human) (UniProt P21462); test: radioligand binding to DMSO-differentiated HL-60 cells
[3] = molecular target: T1, human sodium dependent multivitamin transporter, hSMVT (human, UniProt Q9Y289 1-635); test: cell-based or functional assay
T1 sequence (looked up): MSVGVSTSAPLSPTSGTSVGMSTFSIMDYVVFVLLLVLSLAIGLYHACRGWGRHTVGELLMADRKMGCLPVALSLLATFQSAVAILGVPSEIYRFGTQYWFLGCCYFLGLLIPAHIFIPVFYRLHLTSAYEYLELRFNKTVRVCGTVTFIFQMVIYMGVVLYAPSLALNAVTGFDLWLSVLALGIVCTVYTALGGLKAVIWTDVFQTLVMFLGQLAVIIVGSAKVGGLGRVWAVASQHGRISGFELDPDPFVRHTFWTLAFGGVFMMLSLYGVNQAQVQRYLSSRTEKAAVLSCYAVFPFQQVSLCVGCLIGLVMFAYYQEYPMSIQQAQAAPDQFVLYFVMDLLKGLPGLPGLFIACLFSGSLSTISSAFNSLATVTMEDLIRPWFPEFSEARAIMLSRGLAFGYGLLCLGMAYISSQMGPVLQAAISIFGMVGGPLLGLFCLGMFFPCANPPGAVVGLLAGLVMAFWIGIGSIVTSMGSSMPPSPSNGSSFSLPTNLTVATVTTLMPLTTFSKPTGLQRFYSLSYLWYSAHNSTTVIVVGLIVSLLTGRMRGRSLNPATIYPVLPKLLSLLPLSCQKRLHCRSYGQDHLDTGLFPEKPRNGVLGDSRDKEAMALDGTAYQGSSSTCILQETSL

high affinity formyl methionine receptor (fMLF receptor) on differentiated HL-60 cells (human), sequence (P21462 whole entry): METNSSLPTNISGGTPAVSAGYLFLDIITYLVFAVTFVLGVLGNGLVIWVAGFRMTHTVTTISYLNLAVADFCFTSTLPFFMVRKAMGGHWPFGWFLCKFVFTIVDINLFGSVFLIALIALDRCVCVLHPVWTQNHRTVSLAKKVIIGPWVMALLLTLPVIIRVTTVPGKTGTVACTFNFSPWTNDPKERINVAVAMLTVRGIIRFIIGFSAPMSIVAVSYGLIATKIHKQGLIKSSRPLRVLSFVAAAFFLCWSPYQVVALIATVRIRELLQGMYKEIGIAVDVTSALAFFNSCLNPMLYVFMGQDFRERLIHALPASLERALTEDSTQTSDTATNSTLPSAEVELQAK

N-formyl-methionine-leucine-phenylalanine (fMLF) peptide
Cell Activation EC50 (calcium release from intracellular stores, differentiated HL-60 cells) [1]: 4.7 nM

fML[3H]F (peptide)
specific binding as percent of total binding [2]: 75%

B1: RI-K(biotin)-Tat9 (peptide)
peptide: [dK](Biotin)[dR][dR][dR][dQ][dR][dR][dK][dK][dR]-NH2
modifications: not fully specified (N-terminus)
uptake in CHO/hSMVT cells relative to RI-K-Tat9 (at 10 µM) [3]: ~500 fold

From patent publication US20060029667A1 (RUTGERS THE STATE UNIVERSITY OF NEW JERSEY, published 2006)
